# Laboratory results from patent publication US20230365658A1.
# B1: mAb_v2130Vanderbilt_184_20220114_00112 (antibody, V domains shown)
# VH: EVQLVESGGGLVKPGGSLRLSCAASGFTFRDVWMSWVRQAPGKGLEWVGRIKSKIDGGTTDYAAPVKGRFTISRDDSKNTLYLQMNSLKTEDTAVYYCTTAGSYYYDTVGPELPEGKFDYWGQGTLVTVSS
# VL: not shown
# Target: SARS-CoV-2 spike (S) glycoprotein, Omicron BA.4.6 (SARS-CoV-2), P0DTC2
# Assay: cell-based or functional assay
binder,measurement,value
B1,pseudoviral neutralization IC50,1.26 µg/mL
